Reference: the supplement of paper PMC9732359
± gives the uncertainty stated by the source.

Test: protein stability index of a GFP-peptide fusion (yeast GPS) (PSI 1-4); higher = more stable; sorted into four equal gates, so the index is relative within each strain
In short: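 Mid-log yeast cultures in leucine-free medium, carrying a pooled plasmid library, were sorted into four equal gates by their GFP/Cherry fluorescence ratio. Each plasmid expressed Cherry along with GFP fused upstream of a tiled 17-residue yeast protein peptide. Plasmids recovered from each gate were PCR-amplified and Illumina-sequenced, with reads assigned to strains by barcodes. The protein stability index was obtained by summing each gate's read frequency weighted by its gate number.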

Row | Sequence | protein stability index (doa10∆) | protein stability index (pdr5∆) | protein stability index (san1∆) | protein stability index (ubr1∆)
1 | ELYSFQQLVDSEKRLDH [SNF12] | 1.35 ± 0.095 | 2.26 ± 0.074 | 2.26 ± 0.11 | 1.57 ± 0.053
2 | SAQAETEALLLEHDVEY [DIS3] | 3.19 ± 0.087 | 3.22 ± 0.098 | 3.3 ± 0.095 | 3.15 ± 0.066
3 | AASTPTTTATPHANPIT [PGD1] | 2.91 ± 0.044 | 2.85 ± 0.035 | 2.92 ± 0.038 | 2.916 ± 0.026
4 | MLSILEIFKKGYIKNNK [POP6] | 2.63 ± 0.11 | 2.84 ± 0.091 | 3 ± 0.097 | 3.08 ± 0.1
5 | ALLTKRLYPHWDHPVIA [CSN12] | 2.19 ± 0.13 | 1.91 ± 0.1 | 1.7 ± 0.17 | 1.89 ± 0.068
6 | KFFTQSNLEKLPKYKEK [MED7] | 2.43 ± 0.046 | 2.7 ± 0.048 | 2.82 ± 0.053 | 2.62 ± 0.04
7 | IQYVTYLLTQQQIWKSP [SOH1] | 2.16 ± 0.056 | 2.07 ± 0.057 | 1.71 ± 0.074 | 2.09 ± 0.047
8 | LVEAAKLLKIPKFISEA [YDL116W/NUP84] | 2.65 ± 0.081 | 2.61 ± 0.064 | 2.46 ± 0.088 | 2.76 ± 0.042
9 | VAMCFVINKLDRLILDL [SNU114] | 2.23 ± 0.055 | 2.24 ± 0.056 | 2.15 ± 0.096 | 2.77 ± 0.04
10 | DSNESDDDVTPSTKVAS [YLR335W/NUP2] | 3.46 ± 0.16 | 3.13 ± 0.15 | 3.26 ± 0.088 | 3.54 ± 0.12
11 | MKDKEINIQKYNNNTIR [CSI1] | 2.42 ± 0.22 | 2.4 ± 0.15 |  | 2.52 ± 0.1
12 | RAEALNISGEFFRNKLK [RPL16B] |  | 2.4 ± 0.25 |  | 2.9 ± 0.13
13 | LHYIPKYNRYEKRHKNV [RPS11A] | 2.06 ± 0.063 | 1.74 ± 0.054 | 1.78 ± 0.089 | 2.26 ± 0.05
14 | PERWLPLRDRSTYRPKK [SRP72] | 3.29 ± 0.2 | 3.05 ± 0.22 | 2.89 ± 0.2 | 3.64 ± 0.28
15 | KGRKTNKYANNDFANNL [CSL4] | 3.28 ± 0.066 | 3.14 ± 0.053 | 3.13 ± 0.051 | 3.15 ± 0.095
16 | HIMEPCIECQPKAMTDT [HRT1] | 3.13 ± 0.13 | 3.25 ± 0.091 | 2.94 ± 0.11 | 3.29 ± 0.077
17 | PTRYVLIRNVGTNTYRL [POP1] | 1.97 ± 0.29 | 1.32 ± 0.23 | 1.12 ± 0.28 | 
18 | EGDASPFTDITVEGISK [RPB2] | 3.17 ± 0.14 | 2.97 ± 0.17 | 3.08 ± 0.092 | 3.07 ± 0.21
19 | MPPKQQLSKAAKAAAAL [RPS25A] | 1.73 ± 0.048 | 1.87 ± 0.05 | 1.76 ± 0.062 | 1.83 ± 0.042
20 | FKDRFKDEPVQNDILQE [FAS2] | 3.35 ± 0.13 | 3.03 ± 0.15 | 3.23 ± 0.072 | 3.46 ± 0.092

Row | Sequence | protein stability index (doa10∆) | protein stability index (pdr5∆) | protein stability index (san1∆) | protein stability index (ubr1∆)
21 | NLSAFKIVYIAPLKALV [BRR2] | 1.55 ± 0.054 | 1.54 ± 0.051 | 1.49 ± 0.12 | 1.56 ± 0.062
22 | QSNINTNAPLRTLNIQP [YIL149C/MLP2] | 2.61 ± 0.11 | 2.36 ± 0.09 | 1.99 ± 0.086 | 2.19 ± 0.076
23 | AQAQAQAQAQAQAAQAA [GAL11] | 2.91 ± 0.055 | 3.27 ± 0.045 | 3.258 ± 0.023 | 3.15 ± 0.057
24 | LDDPVLNAIVSKNSPAE [YJR042W/NUP85] | 2.9 ± 0.16 | 1.92 ± 0.1 |  | 2.01 ± 0.078
25 | HADKDTFSSSISTYIST [POP8] | 2.61 ± 0.045 | 2.58 ± 0.037 | 2.41 ± 0.048 | 2.69 ± 0.046
26 | VPKHMLDKLDEILYYQI [AAR2] | 2.91 ± 0.069 | 3 ± 0.099 | 2.95 ± 0.076 | 3.17 ± 0.063
27 | CLLSIPKSTKGKILTIK [YML103C/NUP188] | 1.67 ± 0.053 | 1.87 ± 0.062 | 1.66 ± 0.11 | 1.97 ± 0.054
28 | QELISKAFTNWNKRDFM [ISW2] | 2.27 ± 0.14 | 3.55 ± 0.23 | 1.59 ± 0.15 | 2.89 ± 0.25
29 | LSASWDKTLRLWDVATG [ASC1] | 3.52 ± 0.22 | 3.22 ± 0.12 |  | 3.41 ± 0.072
30 | LEALMDILLCYQKLFSQ [SRB8] | 2.98 ± 0.055 | 3.16 ± 0.052 | 3.18 ± 0.048 | 3.05 ± 0.081
31 | VLKACGILSDLEIMQLV [RET1] | 1.56 ± 0.11 |  | 1.46 ± 0.22 | 2.56 ± 0.082
32 | NKINSRNSWNFALIDYF [BRN1] | 2.13 ± 0.2 | 1.27 ± 0.075 | 1.11 ± 0.11 | 1.1 ± 0.073
33 | EPGVLNTGDGSISTYKD [ECM29] | 3.28 ± 0.15 | 3.22 ± 0.15 |  | 
34 | VEPVTERTKLQEHTIFT [SNU114] | 2.2 ± 0.2 | 2.35 ± 0.074 | 1.8 ± 0.21 | 
35 | THLEIEPFTILGAVAGL [RET1] | 1.42 ± 0.041 | 1.91 ± 0.054 | 2.08 ± 0.12 | 2.04 ± 0.048
36 | QAIPKFQMNCYAKEDAF [RPN2] | 1.84 ± 0.061 | 2.23 ± 0.044 | 2.17 ± 0.067 | 2.57 ± 0.036
37 | YFLRRQYILQIVSFIVN [YJL039C/NUP192] | 1.2 ± 0.048 | 1.38 ± 0.068 | 1.31 ± 0.14 | 1.1 ± 0.055
38 | QGTGKKTASLGNSKDDL [ISW2] | 3.02 ± 0.12 | 2.9 ± 0.18 | 3.41 ± 0.057 | 3.42 ± 0.14
39 | IRLANESSELNKDSIEE [CSN12] | 3.22 ± 0.084 | 3.43 ± 0.079 | 3.34 ± 0.065 | 3.37 ± 0.083
